For the assay, the target named is FMDV protomer (VP0, VP3 and VP1) from full-length capsid precursor P1-2A processed by 3C protease (foot-and-mouth disease virus, strain O1 Manisa). Description: sucrose density gradient sedimentation.

The stoichiometry N is a count of units in the complex or per binding partner.

In the case of “FMDV protomer (VP0, VP3 and VP1) from full-length capsid precursor P1-2A processed by 3C protease (complex)”, the reduction in pentamer formation with 17-DMAG, against no drug came to 50% and the stoichiometry N came out at 5.

Values taken from PMC5809743.
